Data as given in US20030138839A1.

Target: human MDM2 (human) (UniProt Q00987)
Assay: cell-based or functional assay

Sequence of human MDM2 (human) (Q00987 whole entry): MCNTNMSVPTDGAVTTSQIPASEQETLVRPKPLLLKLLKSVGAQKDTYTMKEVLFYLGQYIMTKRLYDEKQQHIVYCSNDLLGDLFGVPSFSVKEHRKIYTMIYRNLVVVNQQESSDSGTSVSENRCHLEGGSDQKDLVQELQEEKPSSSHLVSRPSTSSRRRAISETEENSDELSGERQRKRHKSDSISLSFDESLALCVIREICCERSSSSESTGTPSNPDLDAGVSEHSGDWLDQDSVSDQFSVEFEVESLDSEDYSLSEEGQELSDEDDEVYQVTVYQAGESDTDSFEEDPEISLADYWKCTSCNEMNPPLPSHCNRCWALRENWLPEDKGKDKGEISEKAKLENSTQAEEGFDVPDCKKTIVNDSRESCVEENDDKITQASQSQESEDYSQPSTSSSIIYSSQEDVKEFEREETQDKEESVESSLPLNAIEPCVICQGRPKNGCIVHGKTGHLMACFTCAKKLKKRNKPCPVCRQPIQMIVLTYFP

| Substance | reduction of the p53 level expressed from a transfected construct in Saos-2 cells (Western blot, relative to alpha-tubulin) [%] | MDM2 half-life after cycloheximide (Western blot); approximately 15 min without TSG101 co-expression [min] |
| --- | --- | --- |
| HA-tagged human TSG101 | 70 |  |
| human TSG101 protein |  | 28 |
